Assay results from article PMC4028264.

Experiments:
Assay in all cases: native gel or EMSA
[1] = molecular target: HIV-1 strain R2 gp140 fused to a modified GCN4 trimerization domain (HIV-1 strain R2 | not stated)
[2] = molecular target: HIV-1 strain R2 gp140 with a 15 amino acid flexible linker between gp120 and the gp41 ectodomain, fu (HIV-1 strain R2 | not stated)
[3] = molecular target: HIV-1 strain R2 soluble gp140 envelope glycoprotein (uncleaved) (HIV-1 strain R2)

## HIV-1 strain R2 gp140 fused to a modified GCN4 trimerization domain (domain or fragment)
[1]
  stoichiometry N: 3

## HIV-1 strain R2 gp140 with a 15 amino acid flexible linker between gp120 and the gp41 ectodomain, fu (domain or fragment)
[2]
  stoichiometry N: 3

## HIV-1 strain R2 soluble gp140 envelope glycoprotein (uncleaved) (domain or fragment)
[3]
  percent dimer: > 90%
  stoichiometry N: 2
